# Publication PMC11586414
# Molecular target: AMPylated HEPN^Lpg (Legionella pneumophila Philadelphia 1) (UniProt Q5ZRG2)
# Test: crystal structure
substance,measurement,value
AMPylated HEPN^Lpg (from UniProt Q5ZRG2 1-139) (natural protein),stoichiometry N,4
